Assay results from PMC2824758.

Target: CD81 large external loop (LEL) (UniProt P60033)
Sequence of UniProt P60033 (P60033 113-201): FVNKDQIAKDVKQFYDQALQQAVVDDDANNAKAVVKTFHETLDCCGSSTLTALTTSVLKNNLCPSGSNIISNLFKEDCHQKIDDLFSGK

## HCV E2 ectodomain (E2e), isolate UKN2b_2.8, genotype 2b (domain or fragment)
  inhibition of infection of Huh-7.5 cells by HCVcc (infected foci, HCV core immunofluorescence), cells preincubated with 0.05 to 2 µM HCV E2e; 10% inhibition at 0.05 µM: 90%
